Target: truncated human NOTCH2^ΔERA-TurboID (human)
Test: proximity labelling; TurboID fusions stably expressed in HT-29; 500 uM biotin for one hour; streptavidin beads; label-free quantitative mass spectrometry (DIA, Q-Exactive HF X), TurboID alone as control

**Q.** How did the Log2FC NICD2RA-vs-NICD2 (log2 fold change) turn out when “endogenous human NOTCH2 (NICD2) (natural protein)” was run?
**A.** -2.03

**Q.** And the percent of the NOTCH2 recovered (against NICD2-TurboID)?
**A.** 13%

Reference: paper PMC11670933
